Numbered stars: 1 amine (or outer) side, 2 acyl side, 3 side chain; on linkers, the order of the positions; unused ones are H or OH. Square brackets hold non-standard residues; d marks the D form. * marks the point of attachment. CH═CH‑CON(CH2Ph)2 = O=C(/C=C/*)N(Cc1ccccc1)Cc1ccccc1; AAsp = aza-Asp, O=C(N(CC(=O)[*:3])N[*:1])[*:2]; CH═CH‑COOCH2Ph = O=C(/C=C/*)OCc1ccccc1; CH═CH‑COOEt = CCOC(=O)/C=C/*; Cbz = O=C(OCc1ccccc1)*
T1: Caspase-2, P42575
T1 chain: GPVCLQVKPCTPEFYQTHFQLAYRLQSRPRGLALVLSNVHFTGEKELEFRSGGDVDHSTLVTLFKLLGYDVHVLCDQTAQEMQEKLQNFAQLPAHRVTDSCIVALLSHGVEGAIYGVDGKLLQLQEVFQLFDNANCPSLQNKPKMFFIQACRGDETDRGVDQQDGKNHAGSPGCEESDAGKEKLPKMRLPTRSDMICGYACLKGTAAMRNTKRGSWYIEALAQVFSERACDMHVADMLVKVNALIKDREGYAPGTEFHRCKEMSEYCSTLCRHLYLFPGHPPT

T2: Caspase-10, Q92851
T2 chain: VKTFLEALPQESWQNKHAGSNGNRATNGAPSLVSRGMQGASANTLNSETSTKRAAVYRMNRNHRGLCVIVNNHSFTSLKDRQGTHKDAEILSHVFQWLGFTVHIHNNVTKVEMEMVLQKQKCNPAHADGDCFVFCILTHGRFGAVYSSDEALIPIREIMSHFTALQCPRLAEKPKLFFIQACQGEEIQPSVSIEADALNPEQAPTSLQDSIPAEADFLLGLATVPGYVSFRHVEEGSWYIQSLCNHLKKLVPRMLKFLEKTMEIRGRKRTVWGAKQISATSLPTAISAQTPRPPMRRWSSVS

T3: Caspase-8, Q14790
T3 chain: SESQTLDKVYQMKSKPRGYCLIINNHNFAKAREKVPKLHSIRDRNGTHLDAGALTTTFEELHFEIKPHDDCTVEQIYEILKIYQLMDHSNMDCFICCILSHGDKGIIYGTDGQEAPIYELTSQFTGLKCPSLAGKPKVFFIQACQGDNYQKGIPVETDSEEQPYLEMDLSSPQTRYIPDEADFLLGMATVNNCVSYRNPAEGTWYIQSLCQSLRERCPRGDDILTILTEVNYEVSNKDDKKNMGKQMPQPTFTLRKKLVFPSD

T4: Caspase-7, P55210
T4 chain: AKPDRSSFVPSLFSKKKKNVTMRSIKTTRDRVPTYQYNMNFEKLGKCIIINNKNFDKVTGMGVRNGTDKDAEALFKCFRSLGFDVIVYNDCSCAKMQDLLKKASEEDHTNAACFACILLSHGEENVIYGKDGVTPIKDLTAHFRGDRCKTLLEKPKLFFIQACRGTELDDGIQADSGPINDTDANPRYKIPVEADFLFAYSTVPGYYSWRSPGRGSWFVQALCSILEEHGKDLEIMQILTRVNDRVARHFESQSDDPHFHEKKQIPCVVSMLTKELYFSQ

T5: Caspase-3, P42574
T5 chain: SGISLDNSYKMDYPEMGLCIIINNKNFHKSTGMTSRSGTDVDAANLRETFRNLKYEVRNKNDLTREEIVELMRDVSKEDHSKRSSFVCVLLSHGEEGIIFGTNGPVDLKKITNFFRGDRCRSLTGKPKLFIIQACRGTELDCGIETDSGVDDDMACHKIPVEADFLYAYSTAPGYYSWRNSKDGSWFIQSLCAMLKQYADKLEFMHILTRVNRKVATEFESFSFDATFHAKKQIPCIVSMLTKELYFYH

T6: Caspase-6, P55212
T6 chain: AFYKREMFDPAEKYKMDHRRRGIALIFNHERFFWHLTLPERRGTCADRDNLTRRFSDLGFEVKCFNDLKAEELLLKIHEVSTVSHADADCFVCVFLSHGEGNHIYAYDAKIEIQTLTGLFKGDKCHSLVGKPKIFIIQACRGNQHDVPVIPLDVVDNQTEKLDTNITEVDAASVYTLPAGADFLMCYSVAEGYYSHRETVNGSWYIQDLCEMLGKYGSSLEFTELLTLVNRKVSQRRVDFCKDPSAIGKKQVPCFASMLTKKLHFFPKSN

T7: Caspase-2 (UniProt P42575)
T7 sequence (looked up): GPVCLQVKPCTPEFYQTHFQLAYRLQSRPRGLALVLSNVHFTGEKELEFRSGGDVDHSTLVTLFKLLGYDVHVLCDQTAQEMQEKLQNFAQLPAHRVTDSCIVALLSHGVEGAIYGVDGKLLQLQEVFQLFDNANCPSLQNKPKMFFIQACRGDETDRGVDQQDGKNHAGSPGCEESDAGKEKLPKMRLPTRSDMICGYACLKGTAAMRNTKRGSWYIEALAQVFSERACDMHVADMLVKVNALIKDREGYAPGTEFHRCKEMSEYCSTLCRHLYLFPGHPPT

T8: Caspase-7 (UniProt P55210)
T8 sequence (looked up): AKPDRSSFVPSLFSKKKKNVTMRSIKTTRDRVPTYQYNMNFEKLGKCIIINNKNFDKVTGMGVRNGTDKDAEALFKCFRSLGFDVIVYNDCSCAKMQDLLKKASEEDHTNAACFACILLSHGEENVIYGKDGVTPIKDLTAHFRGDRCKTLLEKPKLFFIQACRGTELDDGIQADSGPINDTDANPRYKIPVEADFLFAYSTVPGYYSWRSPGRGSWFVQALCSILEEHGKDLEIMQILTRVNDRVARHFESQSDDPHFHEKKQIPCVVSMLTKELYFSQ

T9: Caspase-10 (UniProt Q92851)
T9 sequence (looked up): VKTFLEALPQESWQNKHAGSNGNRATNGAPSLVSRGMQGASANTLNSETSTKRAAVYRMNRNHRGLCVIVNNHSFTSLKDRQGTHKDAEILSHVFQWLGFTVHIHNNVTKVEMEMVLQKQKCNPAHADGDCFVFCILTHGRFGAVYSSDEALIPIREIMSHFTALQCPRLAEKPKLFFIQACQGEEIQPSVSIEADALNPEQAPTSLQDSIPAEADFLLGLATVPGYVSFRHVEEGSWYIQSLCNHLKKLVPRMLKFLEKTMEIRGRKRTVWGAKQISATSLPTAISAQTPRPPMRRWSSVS

T10: Caspase-6 (UniProt P55212)
T10 sequence (looked up): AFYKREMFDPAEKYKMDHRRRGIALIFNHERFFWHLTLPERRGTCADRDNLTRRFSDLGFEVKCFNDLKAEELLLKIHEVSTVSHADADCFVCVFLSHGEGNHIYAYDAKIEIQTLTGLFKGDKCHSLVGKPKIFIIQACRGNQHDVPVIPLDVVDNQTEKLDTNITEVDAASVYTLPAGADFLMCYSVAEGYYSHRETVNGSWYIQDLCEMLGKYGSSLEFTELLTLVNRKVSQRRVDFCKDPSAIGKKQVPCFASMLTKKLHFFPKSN

T11: Caspase-3 (UniProt P42574)
T11 sequence (looked up): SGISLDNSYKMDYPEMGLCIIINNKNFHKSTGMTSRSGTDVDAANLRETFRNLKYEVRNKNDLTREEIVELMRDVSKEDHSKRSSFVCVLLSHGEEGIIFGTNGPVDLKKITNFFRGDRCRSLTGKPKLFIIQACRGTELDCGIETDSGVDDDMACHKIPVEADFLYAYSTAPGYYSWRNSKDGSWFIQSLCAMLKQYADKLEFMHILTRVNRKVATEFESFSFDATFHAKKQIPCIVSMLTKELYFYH


What was measured:
Test in all cases: cell-based or functional assay
[1] = target: T1, Caspase-2, P42575
[2] = target: T2, Caspase-10, Q92851
[3] = target: T3, Caspase-8, Q14790
[4] = target: T4, Caspase-7, P55210
[5] = target: T5, Caspase-3, P42574
[6] = target: T6, Caspase-6, P55212
[7] = target: T7, Caspase-2
[8] = target: T8, Caspase-7
[9] = target: Caspase-9 (UniProt P55211)
[10] = target: T9, Caspase-10
[11] = target: T10, Caspase-6
[12] = target: T11, Caspase-3
[13] = target: Caspase-8 (UniProt Q14790)

Sequence of Caspase-9 (P55211 whole entry): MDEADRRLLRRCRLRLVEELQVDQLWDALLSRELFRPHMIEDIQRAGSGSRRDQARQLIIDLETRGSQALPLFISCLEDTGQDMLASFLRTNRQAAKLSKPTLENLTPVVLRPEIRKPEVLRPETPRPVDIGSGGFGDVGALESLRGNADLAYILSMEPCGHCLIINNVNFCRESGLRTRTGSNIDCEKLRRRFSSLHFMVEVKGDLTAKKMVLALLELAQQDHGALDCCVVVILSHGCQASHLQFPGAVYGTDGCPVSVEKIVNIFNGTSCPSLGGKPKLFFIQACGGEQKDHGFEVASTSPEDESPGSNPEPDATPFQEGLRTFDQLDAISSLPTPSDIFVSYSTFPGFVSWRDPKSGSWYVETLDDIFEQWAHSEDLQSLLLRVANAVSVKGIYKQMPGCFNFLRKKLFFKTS

Row | Binder | k2 [1] | k2 [2] | k2 [3] | k2 [4] | k2 [5] | k2 [6] | k2 [7] | k2 [8] | k2 [9] | k2 [10] | k2 [11] | k2 [12] | k2 [13]
1 | DEVD (modifications not checked) [Cbz-Asp-Glu-Val-AAsp-CH═CH-COOEt (trans)] | 2640 M⁻¹ s⁻¹ | 49900 M⁻¹ s⁻¹ | 273000 M⁻¹ s⁻¹ | 239000 M⁻¹ s⁻¹ | 2.13e+06 M⁻¹ s⁻¹ | 35600 M⁻¹ s⁻¹ | – | – | – | – | – | – | –
2 | Cbz-IET[AAsp]-{CH═CH‑CONHCH2Ph} [Cbz-Ile-Glu-Thr-AAsp-CH═CH-CONHCH2Ph] | – | – | – | – | – | – | 15 M⁻¹ s⁻¹ | 100 M⁻¹ s⁻¹ | 440 M⁻¹ s⁻¹ | 503 M⁻¹ s⁻¹ | 16800 M⁻¹ s⁻¹ | 2250 M⁻¹ s⁻¹ | 61300 M⁻¹ s⁻¹
3 | Cbz-IET[AAsp]-{CH═CH‑COOCH2Ph} (SMILES CC[C@H](C)[C@H](NC(=O)OCc1ccccc1)C(=O)N[C@@H](CCC(=O)O)C(=O)N[C@H](C(=O)NN(CC(=O)O)C(=O)/C=C/C(=O)OCc1ccccc1)[C@@H](C)O) [Cbz-Ile-Glu-Thr-AAsp-CH═CH-COOCH2Ph] | – | – | – | – | – | – | 110 M⁻¹ s⁻¹ | 660 M⁻¹ s⁻¹ | – | 15200 M⁻¹ s⁻¹ | 23400 M⁻¹ s⁻¹ | 2300 M⁻¹ s⁻¹ | 148000 M⁻¹ s⁻¹
4 | DEVD (modifications not checked) [Cbz-Asp-Glu-Val-AAsp-CH═CH-COOCH2Ph] | – | 28300 M⁻¹ s⁻¹ | 121000 M⁻¹ s⁻¹ | 114000 M⁻¹ s⁻¹ | 1.7e+06 M⁻¹ s⁻¹ | 8470 M⁻¹ s⁻¹ | – | – | – | – | – | – | –
5 | Cbz-IET[AAsp]-{CH═CH‑COOEt} (SMILES CCOC(=O)/C=C/C(=O)N(CC(=O)O)NC(=O)[C@@H](NC(=O)[C@H](CCC(=O)O)NC(=O)[C@@H](NC(=O)OCc1ccccc1)[C@@H](C)CC)[C@@H](C)O) [Cbz-Ile-Glu-Thr-AAsp-CH═CH-COOEt] | – | – | – | – | – | – | 300 M⁻¹ s⁻¹ | 530 M⁻¹ s⁻¹ | – | 6900 M⁻¹ s⁻¹ | 88700 M⁻¹ s⁻¹ | 6740 M⁻¹ s⁻¹ | 56500 M⁻¹ s⁻¹
6 | Cbz-IET[AAsp]-{CH═CH‑CON(CH2Ph)2} (SMILES CC[C@H](C)[C@H](NC(=O)OCc1ccccc1)C(=O)N[C@@H](CCC(=O)O)C(=O)N[C@H](C(=O)NN(CC(=O)O)C(=O)/C=C/C(=O)N(Cc1ccccc1)Cc1ccccc1)[C@@H](C)O) [Cbz-Ile-Glu-Thr-AAsp-CH═CH-CON(CH2Ph)2] | – | – | – | – | – | – | 76 M⁻¹ s⁻¹ | 1140 M⁻¹ s⁻¹ | 1930 M⁻¹ s⁻¹ | 7930 M⁻¹ s⁻¹ | 83900 M⁻¹ s⁻¹ | 9570 M⁻¹ s⁻¹ | 39500 M⁻¹ s⁻¹

From patent US20050256058A1
